B1: IQUB (parent)
chain: CRNCINLQNEAQKRESFLKYKCLL

Variants of: B1
Experiment: protein stability index of a GFP-peptide fusion (GPS, HEK-293T) (PSI 1-6); higher = more stable
Conditions: c terminus: a fixed tail appended
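Further: lentivirally expressed fusions sorted by FACS into six bins by GFP to DsRed ratio, PSI derived from sequencing read proportions per bin multiplied by bin number.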

Variant	protein stability index
CRNCINLQNEAQKQESFLKYKCLL	1.89
CRNCINLQNEAQKVESFLKYKCLL	2.36
CRNCINLQNEAQKIESFLKYKCLL	2.86
CRNCINLQNEAQKYESFLKYKCLL	2.43
CRNCINLQNEAQKSESFLKYKCLL	2.56
CRNCINLQNEAVKRESFLKYKCLL	2.12
CRNCINLQNEANKRESFLKYKCLL	1.69
CRNCINLQNEAGKRESFLKYKCLL	1.75
CRNCINLQNEAPKRESFLKYKCLL	2.83
CRNCINLQNEAFKRESFLKYKCLL	2.23
CRNCINLQNEARKRESFLKYKCLL	1.96
CRNCINLQNEAMKRESFLKYKCLL	1.5
CRNCINLQNEAAKRESFLKYKCLL	2.34
CRNCINLQNEADKRESFLKYKCLL	1.87
CRNCINLQNEAEKRESFLKYKCLL	2.29
CHNCINLQNEAQKRESFLKYKCLL	2.56
CQNCINLQNEAQKRESFLKYKCLL	1.53
CFNCINLQNEAQKRESFLKYKCLL	1.89
CYNCINLQNEAQKRESFLKYKCLL	1.64
CINCINLQNEAQKRESFLKYKCLL	1.45
CMNCINLQNEAQKRESFLKYKCLL	1.89
CVNCINLQNEAQKRESFLKYKCLL	1.41
CSNCINLQNEAQKRESFLKYKCLL	1.86
CANCINLQNEAQKRESFLKYKCLL	1.95

Variant	protein stability index
CRNCINLQNEAQKRESYLKYKCLL	1.59
CRNCINLQNEAQKRESNLKYKCLL	2.22
CRNCINLQNEAQKRESPLKYKCLL	2.33
CRNCINLQNEAQKRESVLKYKCLL	2.25
CRNCINLQNEAQKRESWLKYKCLL	1.58
CRNCINLQNEAQKRESTLKYKCLL	2.74
CRNCINLQNEAQKRESCLKYKCLL	2.13
CRNCINLQNEAQKRESSLKYKCLL	2.08
CRNCINLQNEAQKRESLLKYKCLL	1.77
CRNCINLQNEAQKRESFLKYDCLL	2.06
CRNCINLQNEAQKRESFLKYMCLL	1.76
CRNCINLQNEAQKRESFLKYPCLL	1.74
CRNCINLQNEAQKRESFLKYECLL	1.75
CRNCINLQNEAQKRESFLKYSCLL	1.94
CRNCINLQNEAQKRESFLKYLCLL	1.38
CRNCINLQNEAQKRESFLKYNCLL	1.47
CRNCINLQNEAQKRESFLKYICLL	2.28
CRNCINLQNEAQKRESFLKYHCLL	2.47
CRNCINLQNEAQKRESFLKYKCLI	1.75
CRNCINLQNEAQKRESFLKYKCLH	2.19
CRNCINLQNEAQKRESFLKYKCLD	2.81
CRNCINLQNEAQKRESFLKYKCLW	1.46
CRNCINLQNEAQKRESFLKYKCLY	1.69
CRNCINLQNEAQKRESFLKYKCLK	2.53

Variant	protein stability index
CRNCINLQNEAQKRESFLKYKCLT	1.8
CRNCINLQNEAQKRESFLKYKCLC	3.57
CRNCINLQNKAQKRESFLKYKCLL	2.09
CRNCINLQNFAQKRESFLKYKCLL	2.7
CRNCINLQNGAQKRESFLKYKCLL	1.68
CRNCINLQNAAQKRESFLKYKCLL	1.52
CRNCINLQNDAQKRESFLKYKCLL	1.63
CRNCINLQNRAQKRESFLKYKCLL	1.7
CRNCINLQNHAQKRESFLKYKCLL	2.56
CRNCINLQNQAQKRESFLKYKCLL	2.23
CRMCINLQNEAQKRESFLKYKCLL	1.08
CRYCINLQNEAQKRESFLKYKCLL	1.76
CRVCINLQNEAQKRESFLKYKCLL	1.7
CRTCINLQNEAQKRESFLKYKCLL	3.29
CRWCINLQNEAQKRESFLKYKCLL	1.68
CRHCINLQNEAQKRESFLKYKCLL	1.99
CRNCINLQNEAQKRESFLPYKCLL	1.46
CRNCINLQNEAQKRESFLTYKCLL	2.23
CRNCINLQNEAQKRESFLIYKCLL	2.19
CRNCINLQNEAQKRESFLMYKCLL	2.28
CRNCINLQNEAQKRESFLKYKGLL	1.42
CRNCINLQNEAQKRESFLKYKELL	2.69
CRNCINLQNEAQKRESFLKYKILL	2.13
CRNCINLQNEAQKRESFLKYKLLL	1.76

Variant	protein stability index
CRNCINLQNEAQKRESFLKYKWLL	2.01
CRNCINLQNEQQKRESFLKYKCLL	1.34
CRNCINLQNEHQKRESFLKYKCLL	1.66
CRNCINLQNELQKRESFLKYKCLL	1.98
CRNCINLQNEMQKRESFLKYKCLL	2.25
CRNCINLQNECQKRESFLKYKCLL	1.59
CRNCINLQNERQKRESFLKYKCLL	1.19
CRNCINLQNEDQKRESFLKYKCLL	2.08
CRNCINLQNESQKRESFLKYKCLL	2.06
CRNCINLQNETQKRESFLKYKCLL	2.8
CRNQINLQNEAQKRESFLKYKCLL	2.13
CRNNINLQNEAQKRESFLKYKCLL	1.93
CRNKINLQNEAQKRESFLKYKCLL	2.15
CRNAINLQNEAQKRESFLKYKCLL	2.02
CRNVINLQNEAQKRESFLKYKCLL	1.92
CRNMINLQNEAQKRESFLKYKCLL	2.12
CRNYINLQNEAQKRESFLKYKCLL	2.51
CRNDINLQNEAQKRESFLKYKCLL	1.98
HRNCINLQNEAQKRESFLKYKCLL	2.23
VRNCINLQNEAQKRESFLKYKCLL	2.78
GRNCINLQNEAQKRESFLKYKCLL	2.13
YRNCINLQNEAQKRESFLKYKCLL	1.86
QRNCINLQNEAQKRESFLKYKCLL	2.01
PRNCINLQNEAQKRESFLKYKCLL	2.19

Variant	protein stability index
MRNCINLQNEAQKRESFLKYKCLL	1.91
TRNCINLQNEAQKRESFLKYKCLL	2.66
ERNCINLQNEAQKRESFLKYKCLL	1.87
CRNCINYQNEAQKRESFLKYKCLL	1.86
CRNCINTQNEAQKRESFLKYKCLL	1.67
CRNCINEQNEAQKRESFLKYKCLL	2.27
CRNCINWQNEAQKRESFLKYKCLL	2.57
CRNCINIQNEAQKRESFLKYKCLL	1.79
CRNCINGQNEAQKRESFLKYKCLL	2.36
CRNCINPQNEAQKRESFLKYKCLL	2.21
CRNCINRQNEAQKRESFLKYKCLL	1.65
CRNCINVQNEAQKRESFLKYKCLL	2.01
CRNCINNQNEAQKRESFLKYKCLL	2.26
CRNCINLQNEAQNRESFLKYKCLL	1.85
CRNCINLQNEAQFRESFLKYKCLL	2.35
CRNCINLQNEAQQRESFLKYKCLL	1.75
CRNCINLQNEAQWRESFLKYKCLL	2.06
CRNCINLQNEAQERESFLKYKCLL	1.29
CRNCINLQNEAQVRESFLKYKCLL	1.78
CRNCINLQNEAQTRESFLKYKCLL	2.04
CRNCINLQNEAQCRESFLKYKCLL	1.17
CRNCINLQNEAQRRESFLKYKCLL	1.74
CRNCINLTNEAQKRESFLKYKCLL	1.61
CRNCINLSNEAQKRESFLKYKCLL	2.82

Variant	protein stability index
CRNCINLENEAQKRESFLKYKCLL	2.53
CRNCINLNNEAQKRESFLKYKCLL	1.87
CRNCINLKNEAQKRESFLKYKCLL	1.38
CRNCINLVNEAQKRESFLKYKCLL	2.12
CRNCINLCNEAQKRESFLKYKCLL	2.9
CRNCINLINEAQKRESFLKYKCLL	1.72
CRNCIILQNEAQKRESFLKYKCLL	2.59
CRNCILLQNEAQKRESFLKYKCLL	2.27
CRNCISLQNEAQKRESFLKYKCLL	2.37
CRNCIWLQNEAQKRESFLKYKCLL	1.9
CRNCIVLQNEAQKRESFLKYKCLL	1.88
CRNCIGLQNEAQKRESFLKYKCLL	1.91
CRNCINLQNEAQKREAFLKYKCLL	2.05
CRNCINLQNEAQKREPFLKYKCLL	2.2
CRNCINLQNEAQKREDFLKYKCLL	2.11
CRNCINLQNEAQKREQFLKYKCLL	2.06
CRNCINLQNEAQKREWFLKYKCLL	1.69
CRNCINLQNEAQKREVFLKYKCLL	2.4
CRNCINLQNEAQKREHFLKYKCLL	2.25
CRNCINLQNEAQKREEFLKYKCLL	2.15
CRNCINLQNEAQKRENFLKYKCLL	1.84
CRNCINLQGEAQKRESFLKYKCLL	2.15
CRNCINLQMEAQKRESFLKYKCLL	1.39
CRNCINLQAEAQKRESFLKYKCLL	1.84

Variant	protein stability index
CRNCINLQDEAQKRESFLKYKCLL	2.28
CRNCINLQQEAQKRESFLKYKCLL	1.49
CRNCINLQCEAQKRESFLKYKCLL	1.57
CRNCINLQSEAQKRESFLKYKCLL	1.95
CRNCINLQIEAQKRESFLKYKCLL	2.01
CRNCINLQNEAQKRESFLKRKCLL	1.83
CRNCINLQNEAQKRESFLKWKCLL	2.46
CRNCINLQNEAQKRESFLKLKCLL	2.14
CRNCINLQNEAQKRESFLKTKCLL	2.14
CRNCINLQNEAQKRESFLKHKCLL	1.69
CRNCINLQNEAQKRESFLKQKCLL	2.96
CRNCGNLQNEAQKRESFLKYKCLL	1.83
CRNCLNLQNEAQKRESFLKYKCLL	2.16
CRNCYNLQNEAQKRESFLKYKCLL	2.21
CRNCCNLQNEAQKRESFLKYKCLL	1.64
CRNCTNLQNEAQKRESFLKYKCLL	1.71
CRNCMNLQNEAQKRESFLKYKCLL	1.8
CRNCVNLQNEAQKRESFLKYKCLL	1.61
CRNCNNLQNEAQKRESFLKYKCLL	2.33
CRNCDNLQNEAQKRESFLKYKCLL	2.05
CRNCINLQNEAQKRESFLKYKCCL	2.98
CRNCINLQNEAQKRESFLKYKCYL	2.05
CRNCINLQNEAQKRESFLKYKCML	1.77
CRNCINLQNEAQKRESFLKYKCVL	3.23

Variant	protein stability index
CRNCINLQNEAQKRESFLKYKCRL	2.17
CRNCINLQNEAQKRESFLKYKCQL	1.87
CRNCINLQNEAQKRESFLKYKCAL	1.5
CRNCINLQNEAQKRESFLKYKCTL	1.97
CRNCINLQNEAQKRESFLKYKCDL	2.7
CRNCINLQNEAQKRESFLKYKCWL	2.21
CRNCINLQNEAQKRESFLKYKCSL	2.18
CRNCINLQNEAQKRESFLKYKCIL	2.25
CRNCINLQNEAQKRESFWKYKCLL	1.96
CRNCINLQNEAQKRESFIKYKCLL	1.51
CRNCINLQNEAQKRESFFKYKCLL	2.79
CRNCINLQNEAQKRESFMKYKCLL	2.72
CRNCINLQNEAQKRESFNKYKCLL	2.27
CRNCINLQNEAQKRESFTKYKCLL	1.88
CRNCINLQNEAQKRQSFLKYKCLL	2.01
CRNCINLQNEAQKRGSFLKYKCLL	2.37
CRNCINLQNEAQKRASFLKYKCLL	2.85
CRNCINLQNEAQKRLSFLKYKCLL	2.77
CRNCINLQNEAQKRNSFLKYKCLL	2.51
CRNCINLQNEAQKRCSFLKYKCLL	1.47
